Consider 2 molecules from patent publication US20150087584A1.

For this assay, the target named is Helicoverpa armigera gut proteases (HGP) (Helicoverpa armigera). Nature of the assay: cell-based or functional assay.

For QPICTNSSAGLKGCNYYNADGTFICEGESDPNHPKACPKNCDPNIAYSLC [inhibitory repeat domain IRD-9 of Capsicum annuum Pin-II proteinase inhibitors (CanPIs)], the inhibition of HGP activity (BApNA and Azocasein substrates) was in the range of 80 to 85%. Regarding NRLCTNCCAGRKGCNYYSADGTFICEGESDPNNPKACPRNCDPNIAYSLC [inhibitory repeat domain IRD-12 of Capsicum annuum Pin-II proteinase inhibitors (CanPIs)], the HGPI activity of the IRD alone at its IC50 concentration came to 51%; the inhibition of HGP activity (BApNA and Azocasein substrates) lay in the range of 80 to 85%.
